{
  "source": "patent US20210332136A1",
  "target": "human PD-L1 on RT4 human bladder cancer cells (human) (UniProt Q9NZQ7)",
  "sequence (Q9NZQ7 19-290)": "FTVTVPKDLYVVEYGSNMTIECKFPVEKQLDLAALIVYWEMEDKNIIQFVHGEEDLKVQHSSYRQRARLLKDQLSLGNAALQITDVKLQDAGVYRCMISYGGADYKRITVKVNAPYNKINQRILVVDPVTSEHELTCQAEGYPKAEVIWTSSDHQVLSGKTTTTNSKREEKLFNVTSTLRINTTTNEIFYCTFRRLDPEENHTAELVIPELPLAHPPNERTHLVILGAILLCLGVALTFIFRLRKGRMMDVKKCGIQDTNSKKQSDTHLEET",
  "assay": "cell-based or functional assay",
  "data": [
    {"substance": "atezolizumab (antibody)", "values": [
      {"measurement": "viability of RT4 cells treated in vitro with rabusertib (Chk1 inhibitor) plus atezolizumab", "value": 100, "unit": "%"}
    ]}
  ]
}
